# Experimental data from the supplement of paper PMC9170038.
# Tested on: MS2 coat protein
# Assay: apparent KD of MS2 coat protein; designed switch direction (-1 OFF switch, 1 ON switch): -1; higher = weaker reporter binding
# Outline: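 The buffer was Tris-HCl pH 7.5 with KCl, MgCl2, BSA, DTT, tRNA and Tween-20. In it, SNAP-549-labelled MS2 coat protein was titrated in doubling steps from 0.7 or 1.5 nM to 3 µM over chip-bound RNA switches transcribed by stalled E. coli RNA polymerase on Illumina chips. Apparent KD is the per-design median over clusters of curve fits to normalised fluorescence.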
# [1] = Eterna round: R95, input ligand: FMN 200 uM
# [2] = Eterna round: R95, input ligand: microRNA oligo, concentration not stated
# [3] = Eterna round: R95, input ligand: none
# [4] = input ligand: microRNA oligo, concentration not stated
Sequence,apparent KD of MS2 coat protein [1] [nM],apparent KD of MS2 coat protein [2] [nM],apparent KD of MS2 coat protein [3] [nM],apparent KD of MS2 coat protein (input ligand: FMN 200 uM) [nM],apparent KD of MS2 coat protein (input ligand: none) [nM],apparent KD of MS2 coat protein [4] [nM]
"ACAAGCUUUGAGUUCGUCUUAUACACUCCUAAUAAGAAAACAUGAGGAUCACCCAUGUAAGAAAUAAGAACUCAUGU [Sesor Array 3 - Jieux - Sensor v3, turn-off variant 2] (puzzle: Sensor v3, turn-off variant 2)",25.5,291,27.8,–,–,–
"CUUAUGUGAGGAUAUGCCUGGCCGUGAGGCCAAAUUGAAUUGCAGAAGGCACAUGAGGAUCACCCAUGUGCGGG [jl-ex4-4.66 ViennaUCT mod] (Eterna round: R97, puzzle: Exclusion 4)",–,–,–,201,50.2,–
AAUAACAGAGGAUAUACUGUUUUAUGUGUUUGUUGUUUUGAACAUGAGGAUCACCCAUGUAGAAGGCUGAAUGA [JMF 68] (puzzle: Exclusion 2),–,24.2,–,–,–,–
"AUAAAUCAUGUAGGAUAUGCGUGGCGAAGCUAUGCAGAAGGACAUGAGGAUCACCCAUGUUCUUCCGUCUGCGUACAGACGGAA [Mat - Exclusion NG 1 - Mod of JL - D39] (Eterna round: R96, puzzle: Exclusion NG 1)",–,–,–,297,34.9,28.5
"UCCAGUGAAGGAUAUGCACCAGGCAAUUGUAGGGUACUCAUACAUGAGGAUCACCCAUGUAGAAGGUCGCAGGC [Eternabot (L2) Solution 78] (Eterna round: R97, puzzle: Exclusion 2)",–,–,–,32.4,–,–
"UAAGAUUACCGAGGAUAUGCUGGUUUCUCUCAAGCAGAAGGCGGACUCAACAUGAGGAUCACCCAUGUAAGACGGGUACUAGAU [Ex NG1 #11] (Eterna round: R96, puzzle: Exclusion NG 1)",–,–,–,133,574,76.6
"CAGAAUUGAGGAUAUGAUCAAUUUAACAUGAGGAUCACCCAUGUAUGGGAAUGAUUCUGAUCAGAAGGCGAUUCUU [Exclusion 5: 1:a] (Eterna round: R96, puzzle: Exclusion 5)",–,–,–,960,633,511
"AGCUGUGGCCGAGGAUAUCCACAUGAGGAUCACCCAUGUGAAUACCCAAUUAAGGGAUAACCGUGGGAGAAGGCGGUCUCAGCA [Eli eng2 - 048] (Eterna round: R96, puzzle: Exclusion NG 2)",–,–,–,80.9,167,112
GUGUACGGAGGAUAUAUAUGGGCAGCAUACGCUGCAGCUUCACAUGAGGAUCACCCAUGUAGAAGGCUGUACAC [Mat - Exclusion 2 - Mod of Hyphema - D100] (puzzle: Exclusion 2),–,22,–,–,–,–
"ACAAGCUUUUUGUUCGUCUUAUAAAAUCCUAAGAGGAUAACAUGAGGAUCACCCAUGUAACAAAGACGGACUCAUGU [Sesor Array 13 - Jieux - Sensor v3, turn-off variant 2] (puzzle: Sensor v3, turn-off variant 2)",11.7,120,9.57,–,–,–
"GGAUAGUGAGGAUAUACCCAGAUUGAUGGACACGUCAGCGGGUAGAAGGCACAUGAGGAUCACCCAUGUGGCCU [Eternabot (L1) Solution 22] (Eterna round: R97, puzzle: Exclusion 4)",–,–,–,18.4,14.1,–
GAUUGACAUGAGGAUCACCCAUGUGAGGAUAUCGGCCGGACCUUGUUAGCUUCCAGCGCGAGAAGGCGCAUAGG [Exclusion 1 V36] (puzzle: Exclusion 1),58.9,28.6,43.4,–,–,–
"CCGAGGUAGCGGUCCUAUGACAUGAGGAUCACCCAUGUACCUCGCUACGAGCUUUUUGCUCGUCUUAUAAUUCUCGG [JL Atriat mod 1] (puzzle: Sensor v3, turn-off variant 1)",55.2,229,73.6,–,–,–
"AGUACUAUGCGUGCUGACAUGCGUAGUGCAGCAGGUGUUACAUGAGGAUCACCCAUGUCCUCAUUUGCUCGUCUUAA [Mat - Sensor v3 - Turn-off var 2 - D16] (puzzle: Sensor v3, turn-off variant 2)",88,115,97.6,–,–,–
"GUAGAUCGAGUUAGGAUAUGAUUAAAAUUCGGAUAUCAGAAGGAACUUGAGGAUCACCCAAGUAUAGAUGAUUC [JR_BMEx4_Sub057] (Eterna round: R97, puzzle: Brourd's mod of Exclusion 4)",–,–,–,135,29.8,–
"AGCGAGGCAGGAUAUACAUGAGGAUCACCCAUGUACUUGUAUGGCGUGGAACAUCGUGGUAGAAGGGCCGCGCC [EX3 #79] (Eterna round: R97, puzzle: Exclusion 3)",–,–,–,33.5,23.7,–
"CAGGCGUCUGUGCGUGGUGACAUGAGGAUCACCCAUGUUUUGCUCGUUUUGUCUUGGGCUCGGCGCCCGGGUUCGGG [-24.5, -48.6, A 9%] (Eterna round: R97, puzzle: Sensor, turn-off variant 1)",–,–,–,181,208,–
"GGCGACCACCUCGUGCACUACAUGAGGAUCACCCAUGUUUUUCGCUCGUCUUAUGCGCCAACCUCCCAAACACUAAG [Gelaesxe] (puzzle: Sensor v3, turn-off variant 1)",34.6,103,35.4,–,–,–
CGUACUAAAGUCAGGAUAUUGUCUCGGAUACGAAACAAGAAGGGACAUGAGGAUCACCCAUGUAGAUAGUACGA [Malc #30 mod 5] (puzzle: Brourd's mod of Exclusion 4),16.9,23.4,26.6,–,–,–
"GGUCAAGAGCAGAUCCGCGCUGCUAUUGACCGCUCAUUUACAUGAGGAUCACCCAUGUUUUUUGCUCGUCUUAUUAC [Biinedmaa] (puzzle: Sensor v3, turn-off variant 2)",19.4,77.7,18.7,–,–,–
"ACAUGAGGAUCACCCAUGUCCGGCUGGUCUGUUCCGGCUGUCGAGGAUAUAGUCCGGUGUUCGCGCUAGAAGGUGAGGGCUGGA [Aenatbe mod 45] (Eterna round: R96, puzzle: Exclusion NG 3)",–,–,–,78.9,70.1,48.6
"GCACGGAGUGUAGGAUAUUAGUGCGAUUAGCACUGAGAAGGACAUGAGGAUCACCCAUGUUCCUCAAUAAUUAGCCUUCCGUGC [Eli exng1 - 038] (Eterna round: R96, puzzle: Exclusion NG 1)",–,–,–,15.2,15.7,9.61
GCCAGAGCAGGAUAUCUAAUAUCUCACAUGAGGAUCACCCAUGUCCAGCGAAAGCUGGAGGGAGAAGGGCUCUGGC [Fiskers Ex 5 - 10] (puzzle: Exclusion 5),34.3,49.8,61.8,–,–,–
"AUGGUGUCAGGAUAUCUCAAAGCACAGAAUGAGCGGCUACGGGAGAAGGGACAUGAGGAUCACCCAUGUACUCU [EX4 B.29] (Eterna round: R97, puzzle: Exclusion 4)",–,–,–,19.9,18.6,–
